# B1: coiled-coil domain of human LRRFIP1 (LRRFIP1-CC) (domain or fragment)
# chain: MDSLAEVEEKYKKAMVSNAQLDNEKTNFMYQVDTLKDMLLELEEQLAESRRQYEEKNKEFEREKHAHSILQFQFAEVKEALKQREEMLEK
# Molecular target: the molecule itself
# Experiment: cross-linking
protein,measurement,value
B1,stoichiometry N,2

# Reference: publication PMC3525766 (Journal of structural biology, 2012)
